Legend:
[1] = molecular target: T1, 人CD47 (表面过表达人CD47的293F细胞) (human, UniProt Q08722 19-323); experiment: flow cytometry on 293F cells overexpressing human CD47
T1 construct: whole, on cells; also called 表面过表达人CD47的稳定细胞系293F

[2] = molecular target: T2, 重组人CD47-his蛋白 (ACRO biosystems, cat#CD7-H5227) (human, UniProt Q08722 19-139, biotin-labelled in the ELISA assays (site not stated)); experiment: SPR (Biacore T200), antibody captured by goat anti-mouse IgG on a CM5 chip, CD47-his as analyte
T2 construct: Bought protein; also called 人CD47蛋白; 人CD47-生物素; not shown: his tag
T2 sequence (Q08722 19-139 limits assumed): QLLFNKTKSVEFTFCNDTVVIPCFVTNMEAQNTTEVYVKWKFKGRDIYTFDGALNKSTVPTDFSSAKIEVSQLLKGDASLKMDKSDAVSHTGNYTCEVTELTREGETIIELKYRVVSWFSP

T1 sequence (Q08722 19-323): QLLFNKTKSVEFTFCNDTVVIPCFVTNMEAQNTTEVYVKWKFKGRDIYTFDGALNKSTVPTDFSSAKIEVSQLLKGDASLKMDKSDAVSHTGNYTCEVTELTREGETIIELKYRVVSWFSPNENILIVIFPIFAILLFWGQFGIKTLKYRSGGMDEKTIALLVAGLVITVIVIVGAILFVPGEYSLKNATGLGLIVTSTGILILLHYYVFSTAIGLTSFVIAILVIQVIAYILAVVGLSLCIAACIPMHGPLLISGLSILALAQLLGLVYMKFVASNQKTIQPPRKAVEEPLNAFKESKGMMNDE

B1: 小鼠抗人CD47单克隆抗体1H10 (antibody, V domains shown)
VH: EVQLQQSGAELVRSGASVTLSCTASGFKIKDYYMNWVKQRPEQGLEWIGWIGPENGDTENGPKFQDKATMTANTSSNTAFLQLSSLTPEDTAFYYCNAGGRGGFPYWGQGTQVTVST
VL: DILLTQTPLSLPVSLGDQASFSCRSSQDIVHINGKTYLEWYLQKPGQSPKLLIYRVSNRFSGVPDRFSGSGSGTDFTLKISRVEAEDLGVYYCFQGSHVPRTFGGGTKLEIK
notes: also called 本发明的抗体1H10; 本发明的单克隆抗体1H10
Question: Which results are given for B1?
Answer: binding result [1]: binds; binding result [2]: binds
